Laboratory results: article PMC7699580, “Transmembrane Polar Relay Drives the Allosteric Regulation for ABCG5/G8 Sterol Transporter” (International Journal of Molecular Sciences, 2020)

B1: ABCG5/G8 (Homo sapiens) (protein)
chain 1: MGDLSSLTPGGSMGLQVNRGSQSSLEGAPATAPEPHSLGILHASYSVSHRVRPWWDITSCRQQWTRQILKDVSLYVESGQIMCILGSSGSGKTTLLDAMSGRLGRAGTFLGEVYVNGRALRREQFQDCFSYVLQSDTLLSSLTVRETLHYTALLAIRRGNPGSFQKKVEAVMAELSLSHVADRLIGNYSLGGISTGERRRVSIAAQLLQDPKVMLFDEPTTGLDCMTANQIVVLLVELARRNRIVVLTIHQPRSELFQLFDKIAILSFGELIFCGTPAEMLDFFNDCGYPCPEHSNPFDFYMDLTSVDTQSKEREIETSKRVQMIESAYKKSAICHKTLKNIERMKHLKTLPMVPFKTKDSPGVFSKLGVLLRRVTRNLVRNKLAVITRLLQNLIMGLFLLFFVLRVRSNVLKGAIQDRVGLLYQFVGATPYTGMLNAVNLFPVLRAVSDQESQDGLYQKWQMMLAYALHVLPFSVVATMIFSSVCYWTLGLHPEVARFGYFSAALLAPHLIGEFLTLVLLGIVQNPNIVNSVVALLSIAGVLVGSGFLRNIQEMPIPFKIISYFTFQKYCSEILVVNEFYGLNFTCGSSNVSVTTNPMCAFTQGIQFIEKTCPGATSRFTMNFLILYSFIPALVILGIVVFKIRDHLISR
chain 2: MAGKAAEERGLPKGATPQDTSGLQDRLFSSESDNSLYFTYSGQPNTLEVRDLNYQVDLASQVPWFEQLAQFKMPWTSPSCQNSCELGIQNLSFKVRSGQMLAIIGSSGCGRASLLDVITGRGHGGKIKSGQIWINGQPSSPQLVRKCVAHVRQHNQLLPNLTVRETLAFIAQMRLPRTFSQAQRDKRVEDVIAELRLRQCADTRVGNMYVRGLSGGERRRVSIGVQLLWNPGILILDEPTSGLDSFTAHNLVKTLSRLAKGNRLVLISLHQPRSDIFRLFDLVLLMTSGTPIYLGAAQHMVQYFTAIGYPCPRYSNPADFYVDLTSIDRRSREQELATREKAQSLAALFLEKVRDLDDFLWKAETKDLDEDTCVESSVTPLDTNCLPSPTKMPGAVQQFTTLIRRQISNDFRDLPTLLIHGAEACLMSMTIGFLYFGHGSIQLSFMDTAALLFMIGALIPFNVILDVISKCYSERAMLYYELEDGLYTTGPYFFAKILGELPEHCAYIIIYGMPTYWLANLRPGLQPFLLHFLLVWLVVFCCRIMALAAAALLPTFHMASFFSNALYNSFYLAGGFMINLSSLWTVPAWISKVSFLRWCFEGLMKIQFSRRTYKMPLGNLTIAVSGDKILSVMELDSYPLYAIYLIVIGLSGGFMVLYYVSLRFIKQKPSQDW
notes: full-length heterodimer; ABCG5 C-terminal His6GlyHis6, ABCG8 C-terminal 3C site and CBP (CBP tag and N-glycans kept); Pichia pastoris KM71H; DDM-purified
B2: ABCG5/G8 (Homo sapiens; Q9H221:R543S) (protein)
chain 1: MGDLSSLTPGGSMGLQVNRGSQSSLEGAPATAPEPHSLGILHASYSVSHRVRPWWDITSCRQQWTRQILKDVSLYVESGQIMCILGSSGSGKTTLLDAMSGRLGRAGTFLGEVYVNGRALRREQFQDCFSYVLQSDTLLSSLTVRETLHYTALLAIRRGNPGSFQKKVEAVMAELSLSHVADRLIGNYSLGGISTGERRRVSIAAQLLQDPKVMLFDEPTTGLDCMTANQIVVLLVELARRNRIVVLTIHQPRSELFQLFDKIAILSFGELIFCGTPAEMLDFFNDCGYPCPEHSNPFDFYMDLTSVDTQSKEREIETSKRVQMIESAYKKSAICHKTLKNIERMKHLKTLPMVPFKTKDSPGVFSKLGVLLRRVTRNLVRNKLAVITRLLQNLIMGLFLLFFVLRVRSNVLKGAIQDRVGLLYQFVGATPYTGMLNAVNLFPVLRAVSDQESQDGLYQKWQMMLAYALHVLPFSVVATMIFSSVCYWTLGLHPEVARFGYFSAALLAPHLIGEFLTLVLLGIVQNPNIVNSVVALLSIAGVLVGSGFLRNIQEMPIPFKIISYFTFQKYCSEILVVNEFYGLNFTCGSSNVSVTTNPMCAFTQGIQFIEKTCPGATSRFTMNFLILYSFIPALVILGIVVFKIRDHLISR
chain 2: MAGKAAEERGLPKGATPQDTSGLQDRLFSSESDNSLYFTYSGQPNTLEVRDLNYQVDLASQVPWFEQLAQFKMPWTSPSCQNSCELGIQNLSFKVRSGQMLAIIGSSGCGRASLLDVITGRGHGGKIKSGQIWINGQPSSPQLVRKCVAHVRQHNQLLPNLTVRETLAFIAQMRLPRTFSQAQRDKRVEDVIAELRLRQCADTRVGNMYVRGLSGGERRRVSIGVQLLWNPGILILDEPTSGLDSFTAHNLVKTLSRLAKGNRLVLISLHQPRSDIFRLFDLVLLMTSGTPIYLGAAQHMVQYFTAIGYPCPRYSNPADFYVDLTSIDRRSREQELATREKAQSLAALFLEKVRDLDDFLWKAETKDLDEDTCVESSVTPLDTNCLPSPTKMPGAVQQFTTLIRRQISNDFRDLPTLLIHGAEACLMSMTIGFLYFGHGSIQLSFMDTAALLFMIGALIPFNVILDVISKCYSERAMLYYELEDGLYTTGPYFFAKILGELPEHCAYIIIYGMPTYWLANLRPGLQPFLLHFLLVWLVVFCCSIMALAAAALLPTFHMASFFSNALYNSFYLAGGFMINLSSLWTVPAWISKVSFLRWCFEGLMKIQFSRRTYKMPLGNLTIAVSGDKILSVMELDSYPLYAIYLIVIGLSGGFMVLYYVSLRFIKQKPSQDW
notes: as for B1
B3: ABCG5/G8 (Homo sapiens; Q9H222:E146Q) (protein)
chain 1: MGDLSSLTPGGSMGLQVNRGSQSSLEGAPATAPEPHSLGILHASYSVSHRVRPWWDITSCRQQWTRQILKDVSLYVESGQIMCILGSSGSGKTTLLDAMSGRLGRAGTFLGEVYVNGRALRREQFQDCFSYVLQSDTLLSSLTVRQTLHYTALLAIRRGNPGSFQKKVEAVMAELSLSHVADRLIGNYSLGGISTGERRRVSIAAQLLQDPKVMLFDEPTTGLDCMTANQIVVLLVELARRNRIVVLTIHQPRSELFQLFDKIAILSFGELIFCGTPAEMLDFFNDCGYPCPEHSNPFDFYMDLTSVDTQSKEREIETSKRVQMIESAYKKSAICHKTLKNIERMKHLKTLPMVPFKTKDSPGVFSKLGVLLRRVTRNLVRNKLAVITRLLQNLIMGLFLLFFVLRVRSNVLKGAIQDRVGLLYQFVGATPYTGMLNAVNLFPVLRAVSDQESQDGLYQKWQMMLAYALHVLPFSVVATMIFSSVCYWTLGLHPEVARFGYFSAALLAPHLIGEFLTLVLLGIVQNPNIVNSVVALLSIAGVLVGSGFLRNIQEMPIPFKIISYFTFQKYCSEILVVNEFYGLNFTCGSSNVSVTTNPMCAFTQGIQFIEKTCPGATSRFTMNFLILYSFIPALVILGIVVFKIRDHLISR
chain 2: MAGKAAEERGLPKGATPQDTSGLQDRLFSSESDNSLYFTYSGQPNTLEVRDLNYQVDLASQVPWFEQLAQFKMPWTSPSCQNSCELGIQNLSFKVRSGQMLAIIGSSGCGRASLLDVITGRGHGGKIKSGQIWINGQPSSPQLVRKCVAHVRQHNQLLPNLTVRETLAFIAQMRLPRTFSQAQRDKRVEDVIAELRLRQCADTRVGNMYVRGLSGGERRRVSIGVQLLWNPGILILDEPTSGLDSFTAHNLVKTLSRLAKGNRLVLISLHQPRSDIFRLFDLVLLMTSGTPIYLGAAQHMVQYFTAIGYPCPRYSNPADFYVDLTSIDRRSREQELATREKAQSLAALFLEKVRDLDDFLWKAETKDLDEDTCVESSVTPLDTNCLPSPTKMPGAVQQFTTLIRRQISNDFRDLPTLLIHGAEACLMSMTIGFLYFGHGSIQLSFMDTAALLFMIGALIPFNVILDVISKCYSERAMLYYELEDGLYTTGPYFFAKILGELPEHCAYIIIYGMPTYWLANLRPGLQPFLLHFLLVWLVVFCCRIMALAAAALLPTFHMASFFSNALYNSFYLAGGFMINLSSLWTVPAWISKVSFLRWCFEGLMKIQFSRRTYKMPLGNLTIAVSGDKILSVMELDSYPLYAIYLIVIGLSGGFMVLYYVSLRFIKQKPSQDW
notes: as for B1
B4: ABCG5/G8 (Homo sapiens; Q9H222:A540F) (protein)
chain 1: MGDLSSLTPGGSMGLQVNRGSQSSLEGAPATAPEPHSLGILHASYSVSHRVRPWWDITSCRQQWTRQILKDVSLYVESGQIMCILGSSGSGKTTLLDAMSGRLGRAGTFLGEVYVNGRALRREQFQDCFSYVLQSDTLLSSLTVRETLHYTALLAIRRGNPGSFQKKVEAVMAELSLSHVADRLIGNYSLGGISTGERRRVSIAAQLLQDPKVMLFDEPTTGLDCMTANQIVVLLVELARRNRIVVLTIHQPRSELFQLFDKIAILSFGELIFCGTPAEMLDFFNDCGYPCPEHSNPFDFYMDLTSVDTQSKEREIETSKRVQMIESAYKKSAICHKTLKNIERMKHLKTLPMVPFKTKDSPGVFSKLGVLLRRVTRNLVRNKLAVITRLLQNLIMGLFLLFFVLRVRSNVLKGAIQDRVGLLYQFVGATPYTGMLNAVNLFPVLRAVSDQESQDGLYQKWQMMLAYALHVLPFSVVATMIFSSVCYWTLGLHPEVARFGYFSAALLAPHLIGEFLTLVLLGIVQNPNIVNSVVALLSIFGVLVGSGFLRNIQEMPIPFKIISYFTFQKYCSEILVVNEFYGLNFTCGSSNVSVTTNPMCAFTQGIQFIEKTCPGATSRFTMNFLILYSFIPALVILGIVVFKIRDHLISR
chain 2: MAGKAAEERGLPKGATPQDTSGLQDRLFSSESDNSLYFTYSGQPNTLEVRDLNYQVDLASQVPWFEQLAQFKMPWTSPSCQNSCELGIQNLSFKVRSGQMLAIIGSSGCGRASLLDVITGRGHGGKIKSGQIWINGQPSSPQLVRKCVAHVRQHNQLLPNLTVRETLAFIAQMRLPRTFSQAQRDKRVEDVIAELRLRQCADTRVGNMYVRGLSGGERRRVSIGVQLLWNPGILILDEPTSGLDSFTAHNLVKTLSRLAKGNRLVLISLHQPRSDIFRLFDLVLLMTSGTPIYLGAAQHMVQYFTAIGYPCPRYSNPADFYVDLTSIDRRSREQELATREKAQSLAALFLEKVRDLDDFLWKAETKDLDEDTCVESSVTPLDTNCLPSPTKMPGAVQQFTTLIRRQISNDFRDLPTLLIHGAEACLMSMTIGFLYFGHGSIQLSFMDTAALLFMIGALIPFNVILDVISKCYSERAMLYYELEDGLYTTGPYFFAKILGELPEHCAYIIIYGMPTYWLANLRPGLQPFLLHFLLVWLVVFCCRIMALAAAALLPTFHMASFFSNALYNSFYLAGGFMINLSSLWTVPAWISKVSFLRWCFEGLMKIQFSRRTYKMPLGNLTIAVSGDKILSVMELDSYPLYAIYLIVIGLSGGFMVLYYVSLRFIKQKPSQDW
notes: as for B1

What follows are proteins tested on Nc1ncnc2c1ncn2[C@@H]1O[C@H](COP(=O)(O)OP(=O)(O)OP(=O)(O)O)[C@@H](O)[C@H]1O (assay: colorimetric bismuth citrate phosphate-release ATPase assay). Conditions: E. coli polar lipids, 1.5% sodium cholate, 4.1 mM CHS, Mg2+, 0.1% DDM, pH 7.5, 37 °C.
Assay type: biochemical, Homo sapiens
Excerpt: colorimetric bismuth citrate phosphate-release ATPase assay on ABCG5/G8
B1 showed a Km of 0.60 ± 0.07 mM, a Vmax of 0.677 µmol/min/mg and a kcat of 1.69 ± 0.06 s⁻¹. For the same protein, the kcat/Km was 2800 M⁻¹ s⁻¹. In the case of B2, the Km is reported as 0.42 ± 0.04 mM, the Vmax is reported as 0.151 µmol/min/mg and the kcat is reported as 0.38 ± 0.01 s⁻¹. The kcat/Km was 900 M⁻¹ s⁻¹. For B3, the Km was 0.51 ± 0.05 mM, the Vmax was 0.167 µmol/min/mg and the kcat was 0.41 s⁻¹. The kcat/Km was 820 M⁻¹ s⁻¹. Protein B4 has a Km of 0.58 ± 0.08 mM, a Vmax of 0.101 µmol/min/mg and a kcat of 0.25 ± 0.01 s⁻¹. It also gave a kcat/Km of 430 M⁻¹ s⁻¹.
